The source of these data is patent US20130122013A1 (Eli Lilly, published 2013).

The target in test [1] is T1, human ferroportin 1 (human, UniProt Q9NP59 1-571).
T1 sequence: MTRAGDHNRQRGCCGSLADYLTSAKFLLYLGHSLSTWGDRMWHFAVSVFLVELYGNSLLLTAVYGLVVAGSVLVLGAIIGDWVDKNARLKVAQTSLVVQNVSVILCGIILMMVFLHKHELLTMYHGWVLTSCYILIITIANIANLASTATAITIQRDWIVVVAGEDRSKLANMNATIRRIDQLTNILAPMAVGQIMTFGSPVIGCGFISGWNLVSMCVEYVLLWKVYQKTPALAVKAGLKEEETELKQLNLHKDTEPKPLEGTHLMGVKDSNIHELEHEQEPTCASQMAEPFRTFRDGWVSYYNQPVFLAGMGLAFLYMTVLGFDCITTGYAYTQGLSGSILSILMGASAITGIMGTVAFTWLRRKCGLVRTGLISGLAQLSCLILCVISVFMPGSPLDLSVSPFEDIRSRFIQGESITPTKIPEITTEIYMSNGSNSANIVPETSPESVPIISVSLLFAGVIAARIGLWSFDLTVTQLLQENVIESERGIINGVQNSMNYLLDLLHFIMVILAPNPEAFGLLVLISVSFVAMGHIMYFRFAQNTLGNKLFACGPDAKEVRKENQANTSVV
The experiment in a line: cell-based or functional assay.

Test [2] concerns the target T2, human FPN1 C-terminally fused with GFP (human, UniProt Q9NP59 1-571, GFP reporter fused to the C-terminus ("FPN1 is C-terminally fused with GFP"). It is left out because the patent gives no letters for it.).
T2 sequence: T1 sequence
In words: cell-based or functional assay.

Test [3] has as its target T2, human FPN1 C-terminally fused with GFP. In words: cell-based or functional assay. This is another data set of the same source.
Test [4] has the same target. The experiment in a line: SPR, Biacore T100, 25 C, 1:1 model; FPN1-GFP captured from cell lysate on rabbit anti-GFP antibody, Mab injected. On the technique in general: In SPR one partner is held on a chip, and binding of the other changes the refractive index at the surface.
Description: (§1) The affinities of FPN1 binding Fabs and Mabs may be determined on Biacore T100 and using 1:1 binding model in the Biacore T100 evaluation software (BIAcore® AB, Upsala, Sweden). […] FPN1 is C-terminally fused with GFP. Expression of FPN1-GFP is induced by 1-10 ng/mL doxycycline for 1-24 hours. Induced cells are harvested by scraping off from flasks and then washed with 1×PBS. Cell pellets can be stored at −80° C. before use. About five million induced cells are resuspended in 10 mM phosphate buffer with 0.2% Tween-20 and protease inhibitors, e.g., Complete™ Protease Inhibitor Cocktail Tablet (Roche Diagnostics Corp., Indianapolis, Ind.). Three cycles of freeze/thaw/sonication are used to lyse the cells. The lysate is diluted two-fold with Biacore running buffer and centrifuged to remove debris.
(§2) On Biacore T100, rabbit anti-GFP antibody or goat anti-GFP antibody is immobilized onto flow cell 1 to 4 of a CMS chip at 5000-15000 Rus. FPN1-GFP is captured onto flow cell 2, 3, or 4 from the lysate of induced cells. Flow cell 1 is used as reference. Then all flow cells are injected with different concentrations of antibodies to evaluate the binding and kinetics.
For test [5] the target is unchanged. The experiment in a line: SPR, Biacore T100, 37 C, 1:1 model; FPN1-GFP captured from cell lysate on rabbit anti-GFP antibody, Fab injected.
Description: as §1, §2
Test [6] has as its target T1, human ferroportin 1. In words: inhibition of binding of 30 nM biotinylated hepcidin to FPN/293 cells, ELISA of lysate; antibody at 125 nM; mean. A general note: ELISA stands for enzyme-linked immunosorbent assay.
Description: (§3) Next, 65 μL of lysing buffer (0.5% Triton X-100, 10 mM EDTA) are added to all the wells and the plates are shaken for 10 minutes. Next, 50 μL of the solution in each well is transferred to individual wells of a streptavidin coated Greiner microtiter plate (60 μL of 2 μg/mL streptavidin (Sigma, St. Louis, Mo.; catalog no. S4762) in PBS, incubated at 4° C. overnight, washed 2 times (0.1% Tween 20, TBS), blocked with casein/PBS), and then incubated for one hour at room temperature. […] After incubating one hour at room temperature, the plate is washed 4× and 50 μL of OPD substrate (Sigma; catalog no. P6912) is added. The reaction is stopped with 100 μL 1 N HCl after 4 minutes. Absorbance at 490 nm (A₄₉₀) is read using an appropriate ELISA plate reader.
Test [7] has as its target T1, human ferroportin 1. In words: inhibition of binding of 30 nM biotinylated hepcidin to FPN/293 cells, ELISA of lysate; antibody at 500 nM; mean.
Description: as §3
In test [8] the target is T1, human ferroportin 1. The experiment in a line: inhibition of binding of 30 nM biotinylated hepcidin to FPN/293 cells, ELISA of lysate; antibody at 7.8 nM; mean.
Description: as §3
Test [9] addresses T1, human ferroportin 1. In words: inhibition of binding of 30 nM biotinylated hepcidin to FPN/293 cells, ELISA of lysate; antibody at 2000 nM; mean.
Description: as §3
Test [10] deals with T1, human ferroportin 1. In words: inhibition of binding of 30 nM biotinylated hepcidin to FPN/293 cells, ELISA of lysate; antibody at 31.25 nM; mean.
Description: as §3
Test [11] has as its target T2, human FPN1 C-terminally fused with GFP. In words: SPR, Biacore T100, 37 C, 1:1 model; FPN1-GFP captured from cell lysate on goat anti-GFP antibody, Fab injected; n = 3.
Description: as §1, §2
The target is the same in test [12]. In words: SPR, Biacore T100, 37 C, 1:1 model; FPN1-GFP captured from cell lysate on goat anti-GFP antibody, Fab injected; n = 4.
Description: as §1, §2

Where a chain is given by its changes, count along the chain named.

In [1], Control human IgG4 (antibody) displayed a Percentage inhibition of mature hepcidin induced increase in cellular ferritin, Caco-2 cells, antibody at 2.22E-7 M of 24.2%; a Percentage inhibition of mature hepcidin induced increase in cellular ferritin, Caco-2 cells, antibody at 2.47E-8 M of 22.1%; a Percentage inhibition of mature hepcidin induced increase in cellular ferritin, Caco-2 cells, antibody at 2.7E-9 M of 22.4%; a Percentage inhibition of mature hepcidin induced increase in cellular ferritin, Caco-2 cells, antibody at 3.0E-10 M of 15.5%. In test [1], this molecule returned a Percentage inhibition of mature hepcidin induced increase in cellular ferritin, Caco-2 cells, antibody at 6.67E-7 M of 18.7%; a Percentage inhibition of mature hepcidin induced increase in cellular ferritin, Caco-2 cells, antibody at 7.4E-8 M of 21.1%; a Percentage inhibition of mature hepcidin induced increase in cellular ferritin, Caco-2 cells, antibody at 8.0E-9 M of 16.1%; a Percentage inhibition of mature hepcidin induced increase in cellular ferritin, Caco-2 cells, antibody at 9.0E-10 M of 17.5%.

B1: Mab 1G9 (antibody, mouse IgG1, kappa, V domains shown)
VH: QVQLKQSGAELVRPGTSVKVSCKASGYAFTSFLIEWLKQRPGQGLEWIGTINPRTGGTKYNEKFRGKATLTADKSSSTAYMQLNSLTSDDSAVYFCVREFFDYWGQGTSLTVSS
VL: ETTVTQSPSYLAASPGETITINCRASKSISKYLAWFQEKPGKTNKLLIYAGSKLHSGIPSRFSGSGSGTDFTLTISSLEPEDFAMYYCFQHNEYPYTFGGGTKLELKR
notes: also called mouse 1G9; murine Mab 1G9
For the molecule B1, in test [2], the “Percent (%) Inhibition of Mature Human Hepcidin-induced Internalization and Degradation, Mab at 7.4 nM” value was determined as 24.3%; the “Percent (%) Inhibition of Mature Human Hepcidin-induced Internalization and Degradation, Mab at 22 nM” value amounted to 49.9%; the “Percent (%) Inhibition of Mature Human Hepcidin-induced Internalization and Degradation, Mab at 67 nM” value was 61.8%; the “Percent (%) Inhibition of Mature Human Hepcidin-induced Internalization and Degradation, Mab at 200 nM” value turned out to be 62.4%. Moreover, the “Percent (%) Inhibition of Mature Human Hepcidin-induced Internalization and Degradation, Mab at 600 nM” value in [2] is 67.9%. Besides, in test [3], the “Absolute IC50 of inhibition of hepcidin-25-induced internalization and degradation of FPN1-GFP” value was found to be 18.8 nM; the “Relative IC50 of inhibition of hepcidin-25-induced internalization and degradation of FPN1-GFP” value is 9.2 nM; the “Top % Inhibition of hepcidin-25-induced internalization and degradation of FPN1-GFP” value was 69%. In test [4], the Kd (in general, the equilibrium constant for the complex coming apart) was found to be 0.728 nM; the koff (in general, a measure of how fast the partners let go of each other) stood at 9.81e-05 s⁻¹; the kon (commonly the rate constant with which the complex forms) turned out to be 135000 M⁻¹ s⁻¹.

B2: Fab 34A9 (Fab, V domains shown)
VH: B1 VH with S31N, R54E
VL: ETTVTQSPSYLAASPGETITINCRASKSISKYLAWFQEKPGKTNKLLIYAGSTLHSGIPSRFSGSGSGTDFTLTISSLEPEDFAMYYCQQHNEYPYTFGGGTKLELK
notes: Mouse Fab; also called mouse Fab 34A9
B2: in [5], the affinity, expressed as Kd, was 41.5 nM; the koff came out at 0.00262 s⁻¹; the kon turned out to be 63200 M⁻¹ s⁻¹.

B3: Mab L2.2-4 (antibody, human IgG4 S228P, kappa, F234A L235A, V domains shown)
VH: QVQLVQSGAEVKKPGSSVKVSCKASGYAFTSFLIEWVRQAPGQGLEWMGTSNPRTGGRKYKEKFRGRVTITADKSTSTAYMELSSLRSEDTAVYYCAREFFDYWGQGTTVTVSS
VL: DIQMTQSPSSLSASVGDRVTITCRASKSISKYTAWYQQKPGKAPKLLIYAGSKLRSGVPSRFSGSGSGTDFTLTISSLQPEDFATYYCQQHNEYPYTFGGGTKVEIKR
Take B3: in test [3], the “Absolute IC50 of inhibition of hepcidin-25-induced internalization and degradation of FPN1-GFP” value came to 6.2 nM; the “Relative IC50 of inhibition of hepcidin-25-induced internalization and degradation of FPN1-GFP” value was 4.8 nM; the “Top % Inhibition of hepcidin-25-induced internalization and degradation of FPN1-GFP” value came out at 81.6%. In test [1], the “EC50 of inhibition of mature hepcidin induced increase in cellular ferritin, Caco-2 cells” value stood at 193 nM; the “Percentage inhibition of mature hepcidin induced increase in cellular ferritin, Caco-2 cells, Mab at 2.22E-7 M” value stood at 53.8%; the “Percentage inhibition of mature hepcidin induced increase in cellular ferritin, Caco-2 cells, Mab at 2.47E-8 M” value stood at 30.1%; the “Percentage inhibition of mature hepcidin induced increase in cellular ferritin, Caco-2 cells, Mab at 2.7E-9 M” value was 39.6%. In [1], the “Percentage inhibition of mature hepcidin induced increase in cellular ferritin, Caco-2 cells, Mab at 3.0E-10 M” value came to 24.1%; the “Percentage inhibition of mature hepcidin induced increase in cellular ferritin, Caco-2 cells, Mab at 6.67E-7 M” value is 61.7%; the “Percentage inhibition of mature hepcidin induced increase in cellular ferritin, Caco-2 cells, Mab at 7.4E-8 M” value is 40.6%; the “Percentage inhibition of mature hepcidin induced increase in cellular ferritin, Caco-2 cells, Mab at 8.0E-9 M” value amounted to 39.5%. Also, the “Percentage inhibition of mature hepcidin induced increase in cellular ferritin, Caco-2 cells, Mab at 9.0E-10 M” value in [1] was 24.4%. Moreover, the % Inhibition (in general, the relative decrease from the control value, in per cent) in test [6] worked out at 76.5%. Besides, the “% Inhibition” value in test [7] came to 99.8%. Moreover, in test [8], the “% Inhibition” value is -0.1%. The “% Inhibition” value in test [9] was 85.1%. In addition, the “% Inhibition” value in test [10] worked out at 27.5%.

B4: Fab 3D8 (Fab, V domains shown)
VH: B3 VH with R58T
VL: DIQMTQSPSSLSASVGDRVTITCRASKSISKYTAWYQQKPGKAPKLLIYAGSKLHSGVPSRFSGSGSGTDFTLTISSLQPEDFATYYCQQHNEYPYTFGGGTKVEIK
notes: Humanized form of mouse Fab 1G9 (VH1-69 and O2 frameworks); also called human 3D8
In [5], B4 had a Kd of 10.4 nM, a koff of 0.002 s⁻¹ and a kon of 192000 M⁻¹ s⁻¹. In test [11], this molecule returned a Kd of 6.29 nM, a koff of 0.00206 s⁻¹ and an on-rate constant (kon) of 328000 M⁻¹ s⁻¹.

B5: Fab 4A10-3 (Fab, V domains shown)
VH: B3 VH
VL: B4 VL with S56W
notes: also called human 4A10-3
In the case of B5, in test [12], the Kd came out at 1.76 nM, the koff stood at 0.00148 s⁻¹ and the kon turned out to be 844000 M⁻¹ s⁻¹.

B6: Fab L2.2-4 (Fab, V domains shown)
VH: B3 VH
VL: B4 VL with H55R
notes: also called human L2.2-4
B6: in [11], binding was characterised by a dissociation constant (Kd) of 1.96 nM, the koff was 0.00079 s⁻¹ and the kon was 431000 M⁻¹ s⁻¹.

B7: Fab Combi11 (Fab, V domains shown)
VH: B3 VH with G57R, R58T, E62S
VL: B4 VL with L54R, S56W
notes: also called human Combi11
In [11], B7 returned a Kd of 2.4 nM, a koff of 0.00637 s⁻¹ and a kon of 2.31e+06 M⁻¹ s⁻¹.
